Legend:
Assay in all cases: flow cytometry on CHO-K1 transfectants, right sub-column
Q91A = target: T1, Q91A
T1 construct: also called hCD27 Q91A
T1 receptor chain: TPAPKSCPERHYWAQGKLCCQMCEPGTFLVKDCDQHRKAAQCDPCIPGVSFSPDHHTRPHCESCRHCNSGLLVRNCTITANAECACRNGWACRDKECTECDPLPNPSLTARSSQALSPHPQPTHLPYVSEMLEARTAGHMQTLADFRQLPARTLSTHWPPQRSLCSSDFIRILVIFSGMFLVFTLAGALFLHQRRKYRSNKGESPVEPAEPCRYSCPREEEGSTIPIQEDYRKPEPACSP
Experimental: (§1) The hCD27 variants that were tested are listed. Amino acids correspond to the UniProt P26842-1 sequence. Amino acids 1-20 constitute the signal peptide. Binding is expressed as the geometric mean of the FITC signal, relative to antibody binding to hCD27, which was set at 100%.
(§2) The ability of several anti-hCD27 antibodies to bind to a series of hCD27 alanine mutants was determined using CHO-K1 cells, transiently transfected pCI-neo empty vector, pCI-neo.hCD27 and several pCI-neo.CD27Ala mutant constructs.
(§3) Detached cells were transferred to 96 wells round-bottomed well plates at approximately 1.2×10⁵ cells/well. After spinning down the cells, discarding the supernatants and re-suspending the cells in the residual volume, the primary antibodies were added and incubated for 30 minutes at 4° C. Cells were washed three times with DPBS/BSA 1%, followed by centrifugation, discarding of the supernatants and re-suspension in the residual volume. […] After washing once, antibody binding was detected using the HTS plate reader (FACS Canto II) and FlowJo software for data analysis. Debris, dead cells and doublets were excluded from the analysis. Binding was expressed as the geometric mean of the FITC signal, relative to antibody binding to hCD27, which was set at 100%.

W13A = target: T2, W13A
T2 construct: also called hCD27 W13A
T2 receptor chain: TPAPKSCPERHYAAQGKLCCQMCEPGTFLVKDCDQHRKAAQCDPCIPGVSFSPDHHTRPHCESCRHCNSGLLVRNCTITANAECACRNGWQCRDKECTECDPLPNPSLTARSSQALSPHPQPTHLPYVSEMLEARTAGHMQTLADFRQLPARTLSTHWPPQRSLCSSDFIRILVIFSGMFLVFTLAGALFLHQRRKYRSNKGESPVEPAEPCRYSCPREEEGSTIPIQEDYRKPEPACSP
Experimental: as §1, §2, §3

F28A = target: T3, F28A
T3 construct: also called hCD27 F28A
T3 receptor chain: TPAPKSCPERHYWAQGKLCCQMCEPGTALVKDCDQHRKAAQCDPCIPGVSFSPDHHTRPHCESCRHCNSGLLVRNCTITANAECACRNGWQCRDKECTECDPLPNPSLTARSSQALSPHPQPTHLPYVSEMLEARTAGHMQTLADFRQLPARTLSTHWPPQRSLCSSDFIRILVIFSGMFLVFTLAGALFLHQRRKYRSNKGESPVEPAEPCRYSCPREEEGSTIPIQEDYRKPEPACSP
Experimental: as §1, §2, §3

Q41A = target: T4, Q41A
T4 construct: also called hCD27 Q41A
T4 receptor chain: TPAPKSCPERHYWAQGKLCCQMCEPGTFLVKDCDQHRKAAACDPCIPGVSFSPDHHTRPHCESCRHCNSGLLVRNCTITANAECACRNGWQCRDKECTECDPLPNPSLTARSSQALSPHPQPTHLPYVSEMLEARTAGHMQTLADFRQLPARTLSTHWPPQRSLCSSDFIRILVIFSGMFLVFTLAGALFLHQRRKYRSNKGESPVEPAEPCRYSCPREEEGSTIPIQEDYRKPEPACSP
Experimental: as §1, §2, §3

G89A = target: T5, G89A
T5 construct: also called hCD27 G89A
T5 receptor chain: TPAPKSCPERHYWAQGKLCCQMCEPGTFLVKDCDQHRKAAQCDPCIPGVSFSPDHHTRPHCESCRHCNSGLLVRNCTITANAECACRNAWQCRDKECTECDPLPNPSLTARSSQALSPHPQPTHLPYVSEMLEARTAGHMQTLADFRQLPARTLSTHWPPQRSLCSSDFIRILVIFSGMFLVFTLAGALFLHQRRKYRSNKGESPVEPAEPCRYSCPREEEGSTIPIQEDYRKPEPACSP
Experimental: as §1, §2, §3

R93A = target: T6, R93A
T6 construct: also called hCD27 R93A
T6 receptor chain: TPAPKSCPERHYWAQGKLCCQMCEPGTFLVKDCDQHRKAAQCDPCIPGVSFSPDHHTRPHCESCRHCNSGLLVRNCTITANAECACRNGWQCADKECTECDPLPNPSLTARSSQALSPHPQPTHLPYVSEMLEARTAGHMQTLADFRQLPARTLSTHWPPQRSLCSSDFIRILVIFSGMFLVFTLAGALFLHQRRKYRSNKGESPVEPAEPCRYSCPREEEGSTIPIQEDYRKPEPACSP
Experimental: as §1, §2, §3

P44A = target: T7, P44A
T7 construct: also called hCD27 P44A
T7 receptor chain: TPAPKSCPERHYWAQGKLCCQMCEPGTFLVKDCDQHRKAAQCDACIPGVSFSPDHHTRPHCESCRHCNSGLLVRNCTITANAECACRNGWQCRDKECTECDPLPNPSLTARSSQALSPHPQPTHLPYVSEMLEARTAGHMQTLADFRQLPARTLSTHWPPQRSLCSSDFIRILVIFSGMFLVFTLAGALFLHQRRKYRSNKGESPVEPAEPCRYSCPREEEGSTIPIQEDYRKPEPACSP
Experimental: as §1, §2, §3

D43A = target: T8, D43A
T8 construct: also called hCD27 D43A
T8 receptor chain: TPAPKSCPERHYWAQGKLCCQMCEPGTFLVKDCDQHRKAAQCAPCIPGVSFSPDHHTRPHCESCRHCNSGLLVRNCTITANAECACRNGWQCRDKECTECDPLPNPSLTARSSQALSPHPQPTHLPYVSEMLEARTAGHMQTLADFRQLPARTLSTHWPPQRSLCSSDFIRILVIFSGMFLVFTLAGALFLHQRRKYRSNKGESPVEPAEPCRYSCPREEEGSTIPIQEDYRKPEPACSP
Experimental: as §1, §2, §3

V30A = target: T9, V30A
T9 construct: also called hCD27 V30A
T9 receptor chain: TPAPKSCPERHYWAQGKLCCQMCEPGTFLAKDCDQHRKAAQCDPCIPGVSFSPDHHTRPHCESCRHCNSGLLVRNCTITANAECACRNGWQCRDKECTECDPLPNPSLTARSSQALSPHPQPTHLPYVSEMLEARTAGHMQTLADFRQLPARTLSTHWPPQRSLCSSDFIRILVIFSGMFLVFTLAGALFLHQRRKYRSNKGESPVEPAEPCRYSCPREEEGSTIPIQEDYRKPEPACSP
Experimental: as §1, §2, §3

G16A = target: T10, G16A
T10 construct: also called hCD27 G16A
T10 receptor chain: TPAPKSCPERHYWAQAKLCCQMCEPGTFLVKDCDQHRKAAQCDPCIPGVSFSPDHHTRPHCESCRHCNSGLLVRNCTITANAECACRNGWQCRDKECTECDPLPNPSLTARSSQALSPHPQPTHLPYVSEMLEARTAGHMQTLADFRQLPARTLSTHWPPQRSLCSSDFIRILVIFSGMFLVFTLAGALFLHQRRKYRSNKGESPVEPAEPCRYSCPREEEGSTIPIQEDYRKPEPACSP
Experimental: as §1, §2, §3

B1: hCD27.131A (mouse parental 131A) (antibody, mouse IgG1, V domains shown)
VH: QIQLVQSGPELKKPGETVKISCKASGYTFTNYGMNWVKQAPGKGLKWMGWINTNTGEPTYAEEFKGRFAFSLETSATTAYLQINNLKNEDTATYFCAREGDAMDYWGQGTSVTVSS
VL: QIVLTQSPAIMSASPGEKVTMTCSASSSVSYMHWYQQKSGTSPKRWIYDTSKLASGVPARFSGSGSGTSYSLTISSMEAEDAATYYCQQWNSYPFTFGSGTKLEIK
notes: Mouse IgG1 antibody; also called mouse hCD27.131A
binding, WT hCD27 = 100 (GM FITC) (Q91A): 136% | binding, WT hCD27 = 100 (GM FITC) (W13A): 88.6% | binding, WT hCD27 = 100 (GM FITC) (F28A): 57.1% | binding, WT hCD27 = 100 (GM FITC) (Q41A): 80.5% | binding, WT hCD27 = 100 (GM FITC) (G89A): 82.9% | binding, WT hCD27 = 100 (GM FITC) (R93A): 90% | binding, WT hCD27 = 100 (GM FITC) (P44A): 91% | binding, WT hCD27 = 100 (GM FITC) (D43A): 96.2% | binding, WT hCD27 = 100 (GM FITC) (V30A): 94% | binding, WT hCD27 = 100 (GM FITC) (G16A): 108%

— patent publication US20180086841A1 (Merck Sharp & Dohme, published 2018)
